Laboratory results from patent publication US20250195617A1, “Liquid Pharmaceutical Formulations of CNP Compounds” (Ascendis Pharma Growth Disorders A/S, priority 2022, published 2025).
Bridges are numbered along the chain shown (N, C = ends). Where no end group is shown, it is not given here.

Test: Storage stability of CNP peptide liquid formulations (F33-45), content and purity by RP-HPLC/MS
Assay type: physicochemical
Settings: acetate buffer, 5° C., 6 months, LC-MS
Protocol: All excipient stock solutions, except for phenol and m-cresol, were prepared by combining the required excipients in a volumetric flask and filling it up to 90% of the desired volume with water. The pH of the stock solutions was adjusted using 1 M NaOH solution as required and the volume adjusted to the desired volume with water. The stock solutions were filtered through a 0.2 μm PVDF-filter. Stock solutions of phenol (1.75%) and m-cresol (1.05%) were prepared by adding the preservative to the respective excipient stock solution after filtration. Next, the required amount of CNP was dissolved in the required amount of the desired excipient stock solution and the pH was checked and adjusted if needed with 1 M NaOH. The formulations were filtered through a 0.22 μm PVDF filter and the respective preservative stock solution was added. The formulations were aliquoted ready for incubation.
RP-HPLC/MS to determine the content and purity of CNP (F33-45): Mobile phase A was composed of 0.05% aqueous TFA (v/v) and mobile phase B was composed of 0.04% TFA (v/v) in acetonitrile. A Waters Acquity CSH C18, 130 Å, 1.7 μm, 2.1×100 mm column was used. Flow rate was set to 0.3 ml/min, detection was at a wavelength of 215 nm, the column running temperature was 65° C. and the sample injection load was approx. 3 μg CNP-38 eq. (20 μL of a 0.135 mg/ml sample). Samples were diluted to 0.135 mg/mL with dilution buffer (10 mM succinic acid, 84 g/l trehalose dihydrate, adjusted to pH 5 with 1M Tris). For LCMS the HPLC system was coupled to an LTQ Orbitrap Discovery XL instrument and ESI-MS was performed in the positive mode. The change in content of the TIM, T3M and T6M was determined by peak area comparison to the TO sample. For determination of the purity, all peaks higher than the LOQ (0.10%) and not present in the blank were integrated.
The influence of the buffering agent, pH, tonicity agent, detergent, and preservative on the stability of CNP-38 was evaluated. For this purpose, nine formulations of CNP-38 were prepared at a concentration of 2 mg/mL and incubated for 6 months (Table 16). One formulation each at pH 4.5 (F33), pH 5.0 (F34) and pH 4.0 (F35) in acetate buffer were prepared. L-methionine was used to prevent the oxidation of the methionine residue in the peptide, trehalose dihydrate was used as a tonicity or isotonicity agent, Poloxamer 188 as a detergent and m-cresol as a preservative. Another formulation at pH 4.5 containing the same excipients was prepared, in which trehalose was switched to mannitol (F37). […] The formulations were incubated at 5° C. To evaluate whether acetate adducts are formed in acetate buffer, the same formulation as in F33 was incubated at accelerated conditions at 25° C. (F33, 25° C.). […]

Formation of acetylated species, No acetylated peptides:
GANKKGLSKGCFGLKLDRIGSMSGLGC (disulfide 11-27) [CNP-27]
GLSKGCFGLKLDRIGSMSGLGC [CNP-22]
PGQEHPNARKYKGANKKGLSKGCFGLKLDRIGSMSGLGC (disulfide 23-39) [PG-CNP-37]
DLRVDTKSRAAWARLLQEHPNARKYKGANKKGLSKGCFGLKLDRIGSMSGLGC (disulfide 37-53; listed as Homo sapiens) [CNP-53]
